Positions count from the first letter of the chain named.
Molecular target: alkaline phosphatase heterodimer IAP/PALP (ALPI/ALPP) on LoVo cells (Homo sapiens, UniProt P09923;P05187 P09923:20-503,P05187:23-506)
Test: flow; apparent Kd on LoVo cells
Conditions: tags: endogenous, LoVo colon cancer cells, label: fluorescent dye
Method: A dish of colon cancer LoVo cells in the logarithmic growth phase was digested with 0.2% EDTA in PBS into a monodisperse cell suspension, and then divided into several aliquots. The aliquots were incubated with a fluorescent molecule-labeled aptamer probe solution for 30 min and washed twice with washing buffer, and then the fluorescence intensity on the cell surface was measured with BD FACSalibur flow cytometer. The average fluorescence intensity on the cell surface was plotted against the concentration of the aptamer, and the equilibrium dissociation constant Kd of the aptamer was calculated according to the following formula: Y=BₘₐₓX (Kd+X).

alkaline phosphatase heterodimer IAP/PALP (ALPI/ALPP) on LoVo cells, sequence (P09923 20-503, chain 1 of 2): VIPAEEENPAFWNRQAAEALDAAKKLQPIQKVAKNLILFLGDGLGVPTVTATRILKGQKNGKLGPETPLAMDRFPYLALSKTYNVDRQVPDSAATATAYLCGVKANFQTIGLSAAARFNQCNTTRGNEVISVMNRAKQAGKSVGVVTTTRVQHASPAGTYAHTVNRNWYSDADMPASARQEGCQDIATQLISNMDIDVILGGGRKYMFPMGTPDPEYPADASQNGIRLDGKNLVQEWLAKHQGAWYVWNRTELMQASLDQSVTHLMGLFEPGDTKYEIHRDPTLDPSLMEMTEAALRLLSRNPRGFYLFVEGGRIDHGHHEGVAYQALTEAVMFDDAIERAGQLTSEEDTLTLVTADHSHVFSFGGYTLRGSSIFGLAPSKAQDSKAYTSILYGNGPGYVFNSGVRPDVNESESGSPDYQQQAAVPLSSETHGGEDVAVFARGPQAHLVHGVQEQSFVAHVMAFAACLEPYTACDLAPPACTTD
alkaline phosphatase heterodimer IAP/PALP (ALPI/ALPP) on LoVo cells, sequence (P05187 23-506, chain 2 of 2): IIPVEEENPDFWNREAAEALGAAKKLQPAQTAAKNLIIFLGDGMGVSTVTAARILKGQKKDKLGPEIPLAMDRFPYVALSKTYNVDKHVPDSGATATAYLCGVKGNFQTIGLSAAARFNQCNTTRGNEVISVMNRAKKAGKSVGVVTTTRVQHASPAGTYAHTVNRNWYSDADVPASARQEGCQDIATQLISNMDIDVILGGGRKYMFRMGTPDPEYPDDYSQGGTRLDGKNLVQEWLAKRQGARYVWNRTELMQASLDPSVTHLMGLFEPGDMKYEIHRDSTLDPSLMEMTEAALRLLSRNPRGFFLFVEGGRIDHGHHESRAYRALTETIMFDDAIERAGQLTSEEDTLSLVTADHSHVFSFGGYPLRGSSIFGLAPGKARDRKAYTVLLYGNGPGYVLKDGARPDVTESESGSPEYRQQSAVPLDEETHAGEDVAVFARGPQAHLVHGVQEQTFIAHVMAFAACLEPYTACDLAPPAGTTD

B1: BG2e (ssDNA)
DNA: GGGGTCGGTGTGGGTGGTTATGATTGG
Kd: 9.3 nM

B2: BG2 stem-replaced sequence 5 (ssDNA)
DNA: GATAACATAGGGGTCGGTGTGGGTGGTTATGATTGGCTGTTATC
Kd (stem-loop): 3 nM

B3: BG2 stem-replaced sequence 4 (ssDNA)
DNA: TAAGAAATAGGGGTCGGTGTGGGTGGTTATGATTGGCTTTCTTA
Kd (stem-loop): 5.7 nM

B4: thio-modified BG2 (ssDNA)
DNA: B3 DNA with T1C, A5G, T40C, A44G
modifications: PS at nucleotides 1-7 and the last 7 at the 3' end
Kd (stem-loop): 3.5 nM

B5: BG2 with primer sequences (ssDNA)
DNA: ACGCTCGGATGCCACTACAGTCAAGGAATAGGGGTCGGTGTGGGTGGTTATGATTGGCTTCCTTGTCTCATGGACGTGCTGGTGAC
Kd: 2.9 nM
